Measurements from paper doi:10.1101/2024.03.26.586676 (bioRxiv, 2024).
Where two headings read alike, the source gives them in different places.

Assays:
Hrp48-RRM1 [1] = target: T1, Hrp48-RRM1 (Drosophila melanogaster, UniProt P48809 1-88); assay: ITC
T1 sequence: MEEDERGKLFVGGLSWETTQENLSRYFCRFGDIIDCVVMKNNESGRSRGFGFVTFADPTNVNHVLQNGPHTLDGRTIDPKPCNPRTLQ

Hrp48-RRM2 [2] = target: T2, Hrp48-RRM2 (Drosophila melanogaster, UniProt P48809 89-173); assay: NMR
T2 sequence: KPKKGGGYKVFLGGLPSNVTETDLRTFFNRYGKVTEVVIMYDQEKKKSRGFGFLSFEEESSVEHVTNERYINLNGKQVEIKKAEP

Hrp48-RRM1 [3] = target: T1, Hrp48-RRM1; assay: NMR
Hrp48-RRM1 [4] = target: T1, Hrp48-RRM1; assay: ITC; remark: listed apart in the source
Hrp48-RRM2 [5] = target: T2, Hrp48-RRM2; assay: NMR; remark: listed apart in the source
Sxl-dRBD3;Unr-CSD12 [6] = target: T3, Sxl-dRBD3;Unr-CSD12 (Drosophila melanogaster;Drosophila …, UniProt P19339;B7Z0E2 123-294;186-337, |); assay: SEC-MALS
T3 sequence 1: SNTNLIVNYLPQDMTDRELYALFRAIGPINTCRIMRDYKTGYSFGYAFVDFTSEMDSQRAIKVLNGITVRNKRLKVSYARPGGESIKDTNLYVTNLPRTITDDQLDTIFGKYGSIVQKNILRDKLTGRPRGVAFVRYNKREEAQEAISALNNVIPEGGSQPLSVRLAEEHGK
T3 sequence 2: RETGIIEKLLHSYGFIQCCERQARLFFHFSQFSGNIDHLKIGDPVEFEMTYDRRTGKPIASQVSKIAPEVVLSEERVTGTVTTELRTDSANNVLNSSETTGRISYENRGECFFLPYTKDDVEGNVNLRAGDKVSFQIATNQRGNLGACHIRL

[7] = target: T4, Hrp48-RRM12;Sxl-dRBD3;Unr-CSD12 (Drosophila melanogaster;Drosophila …, UniProt P48809;P19339;B7Z0E2 1-173;123-294;186-337, ||); assay: SEC-MALS
T4 sequence 1: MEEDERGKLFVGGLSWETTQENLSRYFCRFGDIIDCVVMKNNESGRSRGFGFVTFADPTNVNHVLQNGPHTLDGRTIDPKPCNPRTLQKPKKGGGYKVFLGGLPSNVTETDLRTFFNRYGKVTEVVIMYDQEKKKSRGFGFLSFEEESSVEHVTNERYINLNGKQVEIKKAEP
T4 sequence 2: T3 sequence 1
T4 sequence 3: T3 sequence 2

Hrp48-RRM12 [8] = target: T5, Hrp48-RRM12 (Drosophila melanogaster, UniProt P48809 1-173); assay: NMR
T5 sequence: T4 sequence 1

Hrp48-RRM12 [9] = target: T5, Hrp48-RRM12; assay: EMSA
Hrp48-RRM12 [10] = target: T5, Hrp48-RRM12; assay: NMR; remark: listed apart in the source
SEC-MALS = target: the molecule itself; assay: SEC-MALS
Hrp48-RRM12 [11] = target: T5, Hrp48-RRM12; assay: ITC
Sxl-dRBD3;Unr-CSD12 [12] = target: T3, Sxl-dRBD3;Unr-CSD12; assay: SEC
[13] = target: T4, Hrp48-RRM12;Sxl-dRBD3;Unr-CSD12; assay: SEC-MALS; remark: listed apart in the source
Hrp48-RRM12 [14] = target: T5, Hrp48-RRM12; assay: ITC; remark: listed apart in the source

**Q.** What does the source list for AAGAAC (ssRNA) [6-mer-4]?
**A.** binding result (Hrp48-RRM1 [1]): binds; binding result (Hrp48-RRM2 [2]): binds

**Q.** Does AUUAAG (ssRNA) [6-mer-3] bind (Hrp48-RRM2 [2])?
**A.** binds

**Q.** Does AUUAAG (ssRNA) [6-mer-3] bind (Hrp48-RRM1 [3])?
**A.** binds

**Q.** For AACCUA (ssRNA) [6-mer-1], which Kd (Hrp48-RRM1 [4]) is on record?
**A.** 1.3 µM

**Q.** Does AACCUA (ssRNA) [6-mer-1] bind (Hrp48-RRM2 [5])?
**A.** no binding

**Q.** Does UUUUUUUGAGCACGUGAACCUAGGAUUAAG (ssRNA) [WT-30-mer] bind (Sxl-dRBD3;Unr-CSD12 [6])?
**A.** binds

**Q.** Does UUUUUUUGAGCACGUGAACCUAGGAUUAAG (ssRNA) [WT-30-mer] bind [7]?
**A.** binds

**Q.** Does UAAG (ssRNA) [4-mer-6] bind (Hrp48-RRM12 [8])?
**A.** binds

**Q.** Does UUUUUUUGAGCACGUGAAGGUAGGAUUAAG (ssRNA) [GG-30-mer-Cy5] bind (Hrp48-RRM12 [9])?
**A.** binds

**Q.** Does UAGG (ssRNA) [4-mer-3] bind (Hrp48-RRM12 [10])?
**A.** binds

B1: Hrp48-RRM2 (residues 89-173) (domain or fragment, Drosophila melanogaster, UniProt P48809 89-173, looked up)
chain: T2 sequence
**Q.** Which “stoichiometry N” value (SEC-MALS) does the source give for B1 here?
**A.** 4

**Q.** UAGGAUUAAG (ssRNA) [10-mer-WT] was tested. Which Kd (Hrp48-RRM12 [11]) did it give?
**A.** 17.3 ± 2.9 nM

**Q.** How did the Kd (Hrp48-RRM1 [4]) turn out when UAGGAU (ssRNA) [6-mer-2] was run?
**A.** 8.7 µM

**Q.** How did the Kd (Hrp48-RRM12 [11]) turn out when UAGGUUAAG (ssRNA) [9-mer (P-element site)] was run?
**A.** 14.8 ± 3.7 nM

**Q.** Which results are given for UUUUUUUGAGCACGUGAAGGUAGGAUUAAG (ssRNA) [GG-30-mer]?
**A.** binding result (Sxl-dRBD3;Unr-CSD12 [12]): binds; binding result [13]: binds; binding result (Hrp48-RRM12 [14]): binds
